IntAct's records for PubMed 8599766

B1: Insulin receptor substrate 1 (Homo sapiens), P35568 (parent)
chain: MASPPESDGFSDVRKVGYLRKPKSMHKRFFVLRAASEAGGPARLEYYENEKKWRHKSSAPKRSIPLESCFNINKRADSKNKHLVALYTRDEHFAIAADSEAEQDSWYQALLQLHNRAKGHHDGAAALGAGGGGGSCSGSSGLGEAGEDLSYGDVPPGPAFKEVWQVILKPKGLGQTKNLIGIYRLCLTSKTISFVKLNSEAAAVVLQLMNIRRCGHSENFFFIEVGRSAVTGPGEFWMQVDDSVVAQNMHETILEAMRAMSDEFRPRSKSQSSSNCSNPISVPLRRHHLNNPPPSQVGLTRRSRTESITATSPASMVGGKPGSFRVRASSDGEGTMSRPASVDGSPVSPSTNRTHAHRHRGSARLHPPLNHSRSIPMPASRCSPSATSPVSLSSSSTSGHGSTSDCLFPRRSSASVSGSPSDGGFISSDEYGSSPCDFRSSFRSVTPDSLGHTPPARGEEELSNYICMGGKGPSTLTAPNGHYILSRGGNGHRCTPGTGLGTSPALAGDEAASAADLDNRFRKRTHSAGTSPTITHQKTPSQSSVASIEEYTEMMPAYPPGGGSGGRLPGHRHSAFVPTRSYPEEGLEMHPLERRGGHHRPDSSTLHTDDGYMPMSPGVAPVPSGRKGSGDYMPMSPKSVSAPQQIINPIRRHPQRVDPNGYMMMSPSGGCSPDIGGGPSSSSSSSNAVPSGTSYGKLWTNGVGGHHSHVLPHPKPPVESSGGKLLPCTGDYMNMSPVGDSNTSSPSDCYYGPEDPQHKPVLSYYSLPRSFKHTQRPGEPEEGARHQHLRLSTSSGRLLYAATADDSSSSTSSDSLGGGYCGARLEPSLPHPHHQVLQPHLPRKVDTAAQTNSRLARPTRLSLGDPKASTLPRAREQQQQQQPLLHPPEPKSPGEYVNIEFGSDQSGYLSGPVAFHSSPSVRCPSQLQPAPREEETGTEEYMKMDLGPGRRAAWQESTGVEMGRLGPAPPGAASICRPTRAVPSSRGDYMTMQMSCPRQSYVDTSPAAPVSYADMRTGIAAEEVSLPRATMAAASSSSAASASPTGPQGAAELAAHSSLLGGPQGPGGMSAFTRVNLSPNRNQSAKVIRADPQGCRRRHSSETFSSTPSATRVGNTVPFGAGAAVGGGGGSSSSSEDVKRHSSASFENVWLRPGELGGAPKEPAKLCGAAGGLENGLNYIDLDLVKDFKQCPQECTPEPQPPPPPPPHQPLGSGESSSTRRSSEDLSAYASISFQKQPEDRQ

Variants of: B1
Conditions: with il4ra_human IL4R
In the case of M257A, the “effect of a mutation on the interaction” value is reported as “decreasing interaction”. R212Q;R227Q was tested, and the “effect of a mutation on the interaction” value was “disrupting interaction”. For R212Q, the “effect of a mutation on the interaction” value was “decreasing interaction”. In the case of R227Q, the “effect of a mutation on the interaction” value is reported as “decreasing interaction”.
